Article PMC10126257, “Genome resequencing and transcriptome analysis reveal the molecular mechanism of albinism in Cordyceps militaris”

B1: CmPKS promoter P2 probe (dsDNA)
DNA 1: CGCAGCTGAGGGTATTGATAGCCGTGATCGAACCC
DNA 2: GGGTTCGATCACGGCTATCAATACCCTCAGCTGCG
B2: CmPKS promoter P1 probe (dsDNA)
DNA 1: TCATATGATTGTTGATAAATATGTTTTCCCAGTGA
DNA 2: TCACTGGGAAAACATATTTATCAACAATCATATGA

Assays:
[1] = target: T1, CmWC-3 (zinc-finger domain-containing protein, GATA-type) (Cordyceps militaris, UniProt G3J672 1-188); test: EMSA; LightShift EMSA Kit (Thermo 20148); cold competitor 50x; proteins recovered in 1x PBS; binding buffer, salt, pH and temperature not stated; settings: protein: recombinant; tags: GST (pGEX-6P-1); label: biotin on both strands (5'); blunt
T1 sequence: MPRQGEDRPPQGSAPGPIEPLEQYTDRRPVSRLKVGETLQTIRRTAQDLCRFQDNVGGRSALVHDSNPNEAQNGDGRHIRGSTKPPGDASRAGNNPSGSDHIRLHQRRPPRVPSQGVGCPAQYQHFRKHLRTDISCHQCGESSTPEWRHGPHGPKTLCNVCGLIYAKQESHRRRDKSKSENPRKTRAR

CmWC-1 (white collar-1) = target: T2, CmWC-1 (white collar-1) (Cordyceps militaris, UniProt G3J3J5 1-963); test: as above; settings: protein: recombinant; tags: His (pCOLD I); label: biotin on both strands (5'); blunt
T2 sequence: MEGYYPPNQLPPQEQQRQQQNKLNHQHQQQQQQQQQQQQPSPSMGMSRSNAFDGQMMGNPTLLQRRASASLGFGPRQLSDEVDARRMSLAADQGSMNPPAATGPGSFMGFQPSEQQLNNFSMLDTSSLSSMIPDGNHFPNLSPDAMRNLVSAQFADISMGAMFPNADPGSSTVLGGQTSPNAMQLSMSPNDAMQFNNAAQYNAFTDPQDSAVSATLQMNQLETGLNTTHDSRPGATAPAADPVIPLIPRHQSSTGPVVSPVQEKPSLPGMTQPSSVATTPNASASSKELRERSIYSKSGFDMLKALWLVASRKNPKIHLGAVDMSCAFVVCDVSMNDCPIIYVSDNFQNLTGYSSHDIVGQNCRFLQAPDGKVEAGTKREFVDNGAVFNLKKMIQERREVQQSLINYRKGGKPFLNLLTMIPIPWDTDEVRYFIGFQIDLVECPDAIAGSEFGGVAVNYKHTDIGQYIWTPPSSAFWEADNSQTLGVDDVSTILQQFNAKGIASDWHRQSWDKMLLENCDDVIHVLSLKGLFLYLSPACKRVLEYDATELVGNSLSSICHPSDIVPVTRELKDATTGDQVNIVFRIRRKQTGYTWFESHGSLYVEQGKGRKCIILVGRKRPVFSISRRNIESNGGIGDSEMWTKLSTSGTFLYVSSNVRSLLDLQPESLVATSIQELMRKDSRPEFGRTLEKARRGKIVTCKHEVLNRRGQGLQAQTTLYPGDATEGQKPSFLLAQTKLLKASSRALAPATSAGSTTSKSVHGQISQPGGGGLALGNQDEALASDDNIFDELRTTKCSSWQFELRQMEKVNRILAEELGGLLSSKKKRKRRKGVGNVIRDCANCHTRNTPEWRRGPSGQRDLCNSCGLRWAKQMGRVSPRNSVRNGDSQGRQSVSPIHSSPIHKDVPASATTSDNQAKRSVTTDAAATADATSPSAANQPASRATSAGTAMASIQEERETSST

Row | Binder | binding result [1] | binding result (CmWC-1 (white collar-1))
1 | B1 | binds | no binding
2 | B2 | binds | no binding
